# B1: bacteriophage SPP1 head completion protein gp16 (stopper protein) (natural protein, UniProt O48446 1-109, looked up)
# chain: MYEEFPDVITFQSYVEQSNGEGGKTYKWVDEFTAAAHVQPISQEEYYKAQQLQTPIGYNIYTPYDDRIDKKMRVIYRGKIVTFIGDPVDLSGLQEITRIKGKEDGAYVG
# notes: Head completion (stopper) protein gp16 of bacteriophage SPP1; native protein from the virion connector; Hexamer in the connector; monomer in solution before assembly (PDB 2KCA, cited); source: CsCl gradient, EDTA disruption, glycerol gradient
# B2: bacteriophage SPP1 portal protein gp6 (natural protein, UniProt P54309 1-503, looked up)
# chain: MADIYPLGKTHTEELNEIIVESAKEIAEPDTTMIQKLIDEHNPEPLLKGVRYYMCENDIEKKRRTYYDAAGQQLVDDTKTNNRTSHAWHKLFVDQKTQYLVGEPVTFTSDNKTLLEYVNELADDDFDDILNETVKNMSNKGIEYWHPFVDEEGEFDYVIFPAEEMIVVYKDNTRRDILFALRYYSYKGIMGEETQKAELYTDTHVYYYEKIDGVYQMDYSYGENNPRPHMTKGGQAIGWGRVPIIPFKNNEEMVSDLKFYKDLIDNYDSITSSTMDSFSDFQQIVYVLKNYDGENPKEFTANLRYHSVIKVSGDGGVDTLRAEIPVDSAAKELERIQDELYKSAQAVDNSPETIGGGATGPALENLYALLDLKANMAERKIRAGLRLFFWFFAEYLRNTGKGDFNPDKELTMTFTRTRIQNDSEIVQSLVQGVTGGIMSKETAVARNPFVQDPEEELARIEEEMNQYAEMQGNLLDDEGGDDDLEEDDPNAGAAESGGAGQVS
# notes: Portal protein gp6 of bacteriophage SPP1, 503 residues; native protein from the virion connector; traced in the cryoEM map from residue 28 to 470; Dodecamer in the connector gp6(12)gp15(12)gp16(6); the assembly-naive recombinant form (PDB 2JES) is a 13-mer; also called connector gp6; gp6 12-mer; source: CsCl gradient, EDTA disruption, glycerol gradient; copies: 12
# Columns and labels:
# Assay in all cases: cryo-EM structure; single particle cryoEM of the native gp6gp15gp16 connector extracted from tailless DNA-filled capsids, 0.64 mg/mL in 0.5x TBT (Tris-Cl pH 7.5, NaCl, MgCl2); C6 symmetry in the final refinement; 2.7 Å (FSC 0.5)
# [1] = target: the molecule itself
# [2] = target: B1; settings: both partners purified
# [3] = target: B2; settings: both partners purified
Binder,stoichiometry N [1],binding result [2],binding result [3]
B1,6,–,–
B2,12,–,–
"bacteriophage SPP1 head completion protein gp15 (adaptor protein) (natural protein, UniProt Q38584 1-102, looked up, Head completion (adaptor) protein gp15 of bacteriophage SPP1; native protein from the virion connector; C-terminal residues ArgLysMetAlaArg, last residue named Arg102; Dodecamer in the connector; monomer in solution before assembly (PDB 2KBZ, cited); source: CsCl gradient, EDTA disruption, glycerol gradient; copies: 12) MDIQRVKRLLSITNDKHDEYLTEMVPLLVEFAKDECHNPFIDKDGNESIPSGVLIFVAKAAQFYMTNAGLTGRSMDTVSYNFATEIPSTILKKLNPYRKMAR",12,binds,binds

# Source: paper PMC9701221 (Nature Communications, 2022)
